{
  "source": "patent US20060058231A1",
  "about": "(Xencor, published 2006)",
  "binders": {"B1": {"name": "BMP-7 variant I86Q (ligand)", "chain": "STGGKQRSQNRSKTPKNQEALRMASVAENSSSDQRQACKKHELYVSFRDLGWQDWIIAPEGYAAYYCEGECAFPLNSYMNATNHAQVQTLVHFINPETVPKPCCAPTQLNAISVLYFDDSSNVILKKYRNMVVRACGCH", "notes": "In conditioned media; numbering on mature BMP-7"}, "B2": {"name": "BMP-7 variant F93D (ligand)", "chain": "STGGKQRSQNRSKTPKNQEALRMASVAENSSSDQRQACKKHELYVSFRDLGWQDWIIAPEGYAAYYCEGECAFPLNSYMNATNHAIVQTLVHDINPETVPKPCCAPTQLNAISVLYFDDSSNVILKKYRNMVVRACGCH", "notes": "as for B1"}, "B3": {"name": "BMP-7 variant I86E (ligand)", "chain": "STGGKQRSQNRSKTPKNQEALRMASVAENSSSDQRQACKKHELYVSFRDLGWQDWIIAPEGYAAYYCEGECAFPLNSYMNATNHAEVQTLVHFINPETVPKPCCAPTQLNAISVLYFDDSSNVILKKYRNMVVRACGCH", "notes": "as for B1"}, "B4": {"name": "BMP-7 variant F117Y (ligand)", "chain": "STGGKQRSQNRSKTPKNQEALRMASVAENSSSDQRQACKKHELYVSFRDLGWQDWIIAPEGYAAYYCEGECAFPLNSYMNATNHAIVQTLVHFINPETVPKPCCAPTQLNAISVLYYDDSSNVILKKYRNMVVRACGCH", "notes": "as for B1"}, "B5": {"name": "BMP-7 variant I86K (ligand)", "chain": "STGGKQRSQNRSKTPKNQEALRMASVAENSSSDQRQACKKHELYVSFRDLGWQDWIIAPEGYAAYYCEGECAFPLNSYMNATNHAKVQTLVHFINPETVPKPCCAPTQLNAISVLYFDDSSNVILKKYRNMVVRACGCH", "notes": "as for B1"}, "B6": {"name": "BMP-7 variant F73S (ligand)", "chain": "STGGKQRSQNRSKTPKNQEALRMASVAENSSSDQRQACKKHELYVSFRDLGWQDWIIAPEGYAAYYCEGECASPLNSYMNATNHAIVQTLVHFINPETVPKPCCAPTQLNAISVLYFDDSSNVILKKYRNMVVRACGCH", "notes": "as for B1"}, "B7": {"name": "BMP-7 variant F93E (ligand)", "chain": "STGGKQRSQNRSKTPKNQEALRMASVAENSSSDQRQACKKHELYVSFRDLGWQDWIIAPEGYAAYYCEGECAFPLNSYMNATNHAIVQTLVHEINPETVPKPCCAPTQLNAISVLYFDDSSNVILKKYRNMVVRACGCH", "notes": "as for B1"}, "B8": {"name": "BMP-7 variant I94Q (ligand)", "chain": "STGGKQRSQNRSKTPKNQEALRMASVAENSSSDQRQACKKHELYVSFRDLGWQDWIIAPEGYAAYYCEGECAFPLNSYMNATNHAIVQTLVHFQNPETVPKPCCAPTQLNAISVLYFDDSSNVILKKYRNMVVRACGCH", "notes": "as for B1"}, "B9": {"name": "BMP-7 variant F117K (ligand)", "chain": "STGGKQRSQNRSKTPKNQEALRMASVAENSSSDQRQACKKHELYVSFRDLGWQDWIIAPEGYAAYYCEGECAFPLNSYMNATNHAIVQTLVHFINPETVPKPCCAPTQLNAISVLYKDDSSNVILKKYRNMVVRACGCH", "notes": "as for B1"}, "B10": {"name": "BMP-7 variant F93G (ligand)", "chain": "STGGKQRSQNRSKTPKNQEALRMASVAENSSSDQRQACKKHELYVSFRDLGWQDWIIAPEGYAAYYCEGECAFPLNSYMNATNHAIVQTLVHGINPETVPKPCCAPTQLNAISVLYFDDSSNVILKKYRNMVVRACGCH", "notes": "as for B1"}},
  "experiment_in_all_cases": "ELISA-like plate assay, captured BMP-7 from conditioned media, receptor-Fc detection",
  "key": {"[1]": {"target": "T1, ActRIIa receptor-Fc fusion (UniProt P27037 20-134, limits assumed)", "T1 construct": "BMP receptor-Fc fusion used at 5 ug/mL", "T1 sequence (P27037 20-134 limits assumed)": "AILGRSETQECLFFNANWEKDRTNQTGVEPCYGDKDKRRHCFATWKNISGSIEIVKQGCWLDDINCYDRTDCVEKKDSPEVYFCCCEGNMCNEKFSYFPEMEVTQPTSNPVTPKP"}, "[2]": {"target": "T2, BMPRII receptor-Fc fusion (UniProt Q13873 27-151, limits assumed)", "T2 construct": "BMP receptor-Fc fusion used at 5 ug/mL", "T2 sequence (looked up)": "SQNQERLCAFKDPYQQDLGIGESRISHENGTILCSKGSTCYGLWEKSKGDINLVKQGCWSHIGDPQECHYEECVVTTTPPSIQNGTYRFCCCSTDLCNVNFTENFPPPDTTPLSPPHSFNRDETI"}, "[3]": {"target": "T3, BMPRIa receptor-Fc fusion (UniProt P36894 24-152, limits assumed)", "T3 construct": "also called ALK-3", "T3 sequence (P36894 24-152 limits assumed)": "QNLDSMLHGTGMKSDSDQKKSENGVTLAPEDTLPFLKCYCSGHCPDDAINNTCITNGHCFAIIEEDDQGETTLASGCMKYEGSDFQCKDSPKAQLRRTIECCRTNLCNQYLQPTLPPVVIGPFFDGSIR"}, "[4]": {"target": "T4, BMPRIb receptor-Fc fusion (UniProt O00238 14-126)", "T4 construct": "BMP receptor-Fc fusion used at 5 ug/mL; also called ALK-6", "T4 sequence (looked up)": "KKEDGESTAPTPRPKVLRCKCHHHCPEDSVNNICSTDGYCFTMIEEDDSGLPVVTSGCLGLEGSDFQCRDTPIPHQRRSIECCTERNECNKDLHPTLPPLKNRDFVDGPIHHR"}},
  "data": [
    {"binder": "B1", "values": [
      {"measurement": "ActRIIa binding (relative to wild type = 1.0)", "setting": "[1]", "value": "0.96 relative to wild type"},
      {"measurement": "BMPRII binding (relative to wild type = 1.0)", "setting": "[2]", "value": "1.07 relative to wild type"},
      {"measurement": "BMPRIa binding (relative to wild type = 1.0)", "setting": "[3]", "value": "0.66 relative to wild type"},
      {"measurement": "BMPRIb binding (relative to wild type = 1.0)", "setting": "[4]", "value": "0.82 relative to wild type"}
    ]},
    {"binder": "B2", "values": [
      {"measurement": "ActRIIa binding (relative to wild type = 1.0)", "setting": "[1]", "value": "0.8 relative to wild type"},
      {"measurement": "BMPRII binding (relative to wild type = 1.0)", "setting": "[2]", "value": "0.62 relative to wild type"},
      {"measurement": "BMPRIa binding (relative to wild type = 1.0)", "setting": "[3]", "value": "0.96 relative to wild type"},
      {"measurement": "BMPRIb binding (relative to wild type = 1.0)", "setting": "[4]", "value": "0.91 relative to wild type"}
    ]},
    {"binder": "B3", "values": [
      {"measurement": "ActRIIa binding (relative to wild type = 1.0)", "setting": "[1]", "value": "1 relative to wild type"},
      {"measurement": "BMPRII binding (relative to wild type = 1.0)", "setting": "[2]", "value": "1.13 relative to wild type"},
      {"measurement": "BMPRIa binding (relative to wild type = 1.0)", "setting": "[3]", "value": "0.66 relative to wild type"},
      {"measurement": "BMPRIb binding (relative to wild type = 1.0)", "setting": "[4]", "value": "0.69 relative to wild type"}
    ]},
    {"binder": "B4", "values": [
      {"measurement": "ActRIIa binding (relative to wild type = 1.0)", "setting": "[1]", "value": "1.03 relative to wild type"},
      {"measurement": "BMPRII binding (relative to wild type = 1.0)", "setting": "[2]", "value": "0.96 relative to wild type"},
      {"measurement": "BMPRIa binding (relative to wild type = 1.0)", "setting": "[3]", "value": "1.07 relative to wild type"},
      {"measurement": "BMPRIb binding (relative to wild type = 1.0)", "setting": "[4]", "value": "0.73 relative to wild type"}
    ]},
    {"binder": "B5", "values": [
      {"measurement": "ActRIIa binding (relative to wild type = 1.0)", "setting": "[1]", "value": "0.97 relative to wild type"},
      {"measurement": "BMPRII binding (relative to wild type = 1.0)", "setting": "[2]", "value": "1.02 relative to wild type"},
      {"measurement": "BMPRIa binding (relative to wild type = 1.0)", "setting": "[3]", "value": "0.81 relative to wild type"},
      {"measurement": "BMPRIb binding (relative to wild type = 1.0)", "setting": "[4]", "value": "0.69 relative to wild type"}
    ]},
    {"binder": "B6", "values": [
      {"measurement": "ActRIIa binding (relative to wild type = 1.0)", "setting": "[1]", "value": "2.54 relative to wild type"},
      {"measurement": "BMPRII binding (relative to wild type = 1.0)", "setting": "[2]", "value": "2.84 relative to wild type"},
      {"measurement": "BMPRIa binding (relative to wild type = 1.0)", "setting": "[3]", "value": "0.9 relative to wild type"},
      {"measurement": "BMPRIb binding (relative to wild type = 1.0)", "setting": "[4]", "value": "0.25 relative to wild type"}
    ]},
    {"binder": "B7", "values": [
      {"measurement": "ActRIIa binding (relative to wild type = 1.0)", "setting": "[1]", "value": "0.79 relative to wild type"},
      {"measurement": "BMPRII binding (relative to wild type = 1.0)", "setting": "[2]", "value": "0.62 relative to wild type"},
      {"measurement": "BMPRIa binding (relative to wild type = 1.0)", "setting": "[3]", "value": "0.83 relative to wild type"},
      {"measurement": "BMPRIb binding (relative to wild type = 1.0)", "setting": "[4]", "value": "0.99 relative to wild type"}
    ]},
    {"binder": "B8", "values": [
      {"measurement": "ActRIIa binding (relative to wild type = 1.0)", "setting": "[1]", "value": "1.1 relative to wild type"},
      {"measurement": "BMPRII binding (relative to wild type = 1.0)", "setting": "[2]", "value": "1.32 relative to wild type"},
      {"measurement": "BMPRIa binding (relative to wild type = 1.0)", "setting": "[3]", "value": "0.74 relative to wild type"},
      {"measurement": "BMPRIb binding (relative to wild type = 1.0)", "setting": "[4]", "value": "0.74 relative to wild type"}
    ]},
    {"binder": "B9", "values": [
      {"measurement": "ActRIIa binding (relative to wild type = 1.0)", "setting": "[1]", "value": "0.34 relative to wild type"},
      {"measurement": "BMPRII binding (relative to wild type = 1.0)", "setting": "[2]", "value": "0.2 relative to wild type"},
      {"measurement": "BMPRIa binding (relative to wild type = 1.0)", "setting": "[3]", "value": "0.43 relative to wild type"},
      {"measurement": "BMPRIb binding (relative to wild type = 1.0)", "setting": "[4]", "value": "0.62 relative to wild type"}
    ]},
    {"binder": "B10", "values": [
      {"measurement": "ActRIIa binding (relative to wild type = 1.0)", "setting": "[1]", "value": "0.63 relative to wild type"},
      {"measurement": "BMPRII binding (relative to wild type = 1.0)", "setting": "[2]", "value": "0.35 relative to wild type"},
      {"measurement": "BMPRIa binding (relative to wild type = 1.0)", "setting": "[3]", "value": "0.6 relative to wild type"},
      {"measurement": "BMPRIb binding (relative to wild type = 1.0)", "setting": "[4]", "value": "0.53 relative to wild type"}
    ]}
  ]
}
